These results are taken from WO2006132352A1.

The chains are these.
B1: humanized anti-human Mpl antibody hVB22B u2-wz4 sc(Fv)2 (bulk, before separation of the structural isomers) (scFv, from another filing)
chain: QVQLVQSGPEVKKPGASVKVSCKASGYTFTNSWMNWVRQRPGKGLEWIGRIYPGDGETIYNGKFRVRVTITADESTSTAYMQLSSLRSEDTAVYYCARGYDDYSFAYWGQGTTVTVSSGGGGSGGGGSGGGGSDIVMTQSPLSLPVTPGEPASISCRSSKSLLHSNGNTYLYWFLQKPGQSPQLLIYRMSNLASGVPDRFSGSGSGTDFTLKISRVEAEDVGVYYCMQHIEYPFTFGQGTKLEIKGGGGSGGGGSGGGGSQVQLVQSGPEVKKPGASVKVSCKASGYTFTNSWMNWVRQRPGKGLEWIGRIYPGDGETIYNGKFRVRVTITADESTSTAYMQLSSLRSEDTAVYYCARGYDDYSFAYWGQGTTVTVSSGGGGSGGGGSGGGGSDIVMTQSPLSLPVTPGEPASISCRSSKSLLHSNGNTYLYWFLQKPGQSPQLLIYRMSNLASGVPDRFSGSGSGTDFTLKISRVEAEDVGVYYCMQHIEYPFTFGQGTKLEIK
B2: hVB22B u2-wz4 sc(Fv)2 peak2 (single chain diabody type structural isomer) (scFv, from another filing)
chain: B1 chain
B3: hVB22B u2-wz4 sc(Fv)2 peak1 (bivalent scFv type structural isomer) (scFv, from another filing)
chain: B1 chain

The assay concerns the target MG10 (Gln213 to Ala231 of the human Mpl amino acid sequence) and GST fusion protein (human) (UniProt P40238). The assay can be described thus: SPR, Biacore 3000, MG10-GST amine-coupled on CM5, sc(Fv)2 at about 5-150 nM as analyte, bivalent analyte model. (In SPR one partner is held on a chip, and binding of the other changes the refractive index at the surface.)
Consider B1, for which the Kd amounted to 10.2 nM.

The molecule B2 yielded a Kd of 9.92 nM. The value for B3 was 12.4 nM.
